These results are taken from US20250250301A1, “DE NOVO DESIGNED BINDERS TARGETING HUMAN EPCAM AND PDL1 RECEPTORS” (University of Washington, priority 2022, published 2025).

Changes are numbered by the printed parent chain. Where no end group is shown, it is not given here. AF594 = Alexa Fluor 594 Where only a bound is given, the exact number is not on record here.

For orientation: Kd means a measure of binding affinity in units of concentration. High values mean weaker binding, low ones tighter binding.

In assay [1] the test system is PDL1+SKOV3 cells. The assay is described as follows: Cell binding assay with AF594-labeled binder, SKOV3 cells. The class given is cell-based, human. As for the experimental part: FIG. 3. Cell binding assay. Binding of control antibodies are shown on the top and the binding for the designed binders are shown the bottom. […] These proteins bind their targets with low to mid nanomolar affinities based on octet data (see FIG. 2A-C). […] The rest of the designs with and without conjugated AF594 are well behaved, remain folded to 60-70° C., and completely refold upon cooling to room temperature. We show sequence, secondary structure information, and interface positions for EpcamBind1_cb4, EpcamBind2_cb10, and, PDL1Bind_cb6 in FIG. 5.

For assay [2], the target named is T1, human epithelial cell adhesion molecule (EpCAM) receptor, extracellular portion (human, UniProt P16422 24-265).
T1 construct: extracellular domain; also called human EpCAM receptor
T1 sequence (looked up): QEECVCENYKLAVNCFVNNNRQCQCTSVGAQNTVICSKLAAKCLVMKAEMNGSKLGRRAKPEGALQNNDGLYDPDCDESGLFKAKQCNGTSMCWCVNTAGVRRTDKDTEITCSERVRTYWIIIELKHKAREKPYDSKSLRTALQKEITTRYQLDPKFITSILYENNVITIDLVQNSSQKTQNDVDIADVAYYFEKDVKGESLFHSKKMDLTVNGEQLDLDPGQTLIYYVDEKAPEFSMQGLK
The assay is described as follows: Octet (BLI), kinetic fitting to association and dissociation; binder 100 nM to 1.56 nM. On the procedure:
FIG. 2A. Octet data for EpcamBind1_cb4. […] Concentrations span a range from 100 nM (top curve) to 1.56 nM (bottom curve) by two-fold dilution.
(§1) In one embodiment of any of the polypeptides of the disclosure, the polypeptide bind to their targets with nanomolar affinity as measured by octet. In the octet experiments, the target protein is immobilized onto an octet sensor and the kinetics of the binder binding to the target are measured over a range of binder concentrations to determine the binders affinity.
On the technique in general: In BLI a coated tip is dipped into the sample, and binding shifts an interference pattern.

Assay [3] concerns the target T2, human programmed death-ligand 1 (PDL1) receptor, extracellular portion (human, UniProt Q9NZQ7 19-238).
T2 construct: extracellular domain; also called human PDL1
The assay is described as follows: yeast surface display screen.

The target in assay [4] is T2, human programmed death-ligand 1 (PDL1) …. The assay is described as follows: Octet (BLI), steady state analysis.
Assay [5] concerns the target T1, human epithelial cell adhesion molecule …. The assay is described as follows: Octet (BLI), kinetic fitting to association and dissociation; binder 1000 nM to 15.6 nM. On the procedure:
FIG. 2B. Octet data for EpcamBind2_cb10. […] Concentrations span a range from 1000 nM (top curve) to 15.6 nM (bottom curve) by two-fold dilution.
as §1

Assay [6] shares this target. The assay is described as follows: yeast surface display screen.
Assay [7] has the same target. Briefly: Octet (BLI), kinetic fitting to association and dissociation; binder 20 nM to 0.5 nM. On the procedure:
FIG. 4. Octet data for gs linked dimer of EpCAMBind1_cterm_cys. […] Concentrations from top curve to bottom curve are 20 nM, 10 nM, 5 nM, 2.5 nM, 1 nM and 0.5 nM.
as §1

Assay [8] deals with T3, human EpCAM receptor (Homo sapiens, UniProt P16422).
T3 sequence (P16422 24-265 limits assumed): T1 sequence (looked up)
Briefly: Octet binding to immobilized human EpCAM. As for the experimental part: as §1

The target in assay [9] is T4, PDL1 on PDL1+ SKOV3 cells (human, UniProt Q9NZQ7 19-290).
T4 construct: whole, on cells
T4 sequence (Q9NZQ7 19-290): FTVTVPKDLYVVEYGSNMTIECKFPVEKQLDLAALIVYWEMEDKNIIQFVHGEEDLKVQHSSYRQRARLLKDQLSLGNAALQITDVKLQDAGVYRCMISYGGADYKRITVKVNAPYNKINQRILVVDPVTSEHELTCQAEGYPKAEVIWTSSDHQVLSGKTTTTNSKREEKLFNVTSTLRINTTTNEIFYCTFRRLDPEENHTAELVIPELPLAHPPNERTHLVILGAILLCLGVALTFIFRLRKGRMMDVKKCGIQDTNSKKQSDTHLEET
Briefly: flow cytometry on PDL1 (+) cells (PDL1+ SKOV3), binder at 500 nM and 5 uM by the legend, fluorescence at 561 nm. On the technique in general: Flow cytometry measures light scatter and fluorescence of single cells or particles in a stream.

T2 sequence (Q9NZQ7 19-238): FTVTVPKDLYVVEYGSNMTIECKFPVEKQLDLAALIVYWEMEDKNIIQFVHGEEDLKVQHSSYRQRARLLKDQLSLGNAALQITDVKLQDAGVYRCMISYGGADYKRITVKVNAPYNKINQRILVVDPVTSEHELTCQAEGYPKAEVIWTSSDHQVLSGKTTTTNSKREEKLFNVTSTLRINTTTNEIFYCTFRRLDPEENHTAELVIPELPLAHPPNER

Regarding “PDL1Bind1_E39C-AF594 (DEDTDRVFELLNEFNELREEGDPERAREVLEEAERLAKCLSDPTLESFVQAIKRVY)”, in [1] (500 nM and 5 uM), the “binding to PDL1+SKOV3 cells” value is reported as “specifically binds”. Further, in assay [1] (5 uM, comparable to control antibody), the “nonspecific binding to PDL1− cells” value is on record as “some minor nonspecific binding”.

B1: EpcamBind1_cb4 (designed binder)
chain: DEERLRELVEELVKELGLSERYKRTLERHLRTALEQGYDEEQIRMNLEQLAQQAREI
notes: Optimized de novo miniprotein (three helices) against human EpCAM
Regarding B1, in [2], the Kd stood at 5.6 nM.

B2: Pdl1Bind (designed binder)
chain: DEDTRRVMELLHEASELREEGDPERAREVLEEAERLAKELGDPSLERFVQAHKRVY
Consider B2, for which the binding result in assay [3] is listed as “binds”.

B3: PDL1Bind_cb6 (designed binder)
chain: DEDTDRVFELLNEFNELREEGDPERAREVLEEAERLAKELSDPTLESFVQAIKRVY
notes: Optimized de novo miniprotein against human PDL1
In assay [4], B3 yielded a Kd of 2 nM.

B4: EpcamBind2_cb10 (designed binder)
chain: DEVQHEVHELMVRIHSLVVRGNPEEARKLLEELEELAKKTNNPSYHIAVEALEHVIN
notes: Optimized de novo miniprotein against human EpCAM
As for B4, the Kd in assay [5] was determined as 500 nM.

B5: EpcamBind2 (designed binder)
chain: B4 chain with M11F, H15Q, S16E, T40Y, N42D, Y45L, H54R
As to B5, the binding result in assay [6] is recorded as “binds”.

B6: gs linked dimer of EpCAMBind1_cterm_cys (designed binder)
chain: DEERLRELVEELVKELGLSERYKRTLERHLRTALEQGYDEEQIRMNLEQLAQQAREIGGSGGSDEERLRELVEELVKELGLSERYKRTLERHLRTALEQGYDEEQIRMNLEQLAQQAREI
notes: also called EpCAM1_dimer
As to B6, in [7], the Kd is less than 0.01 nM.

B7: gs linked dimer of EpCAMBind1_cterm_cys: gs linked fusion dimer of EpCAMBind1; possibly related to EpCAM1_dimer, SEQ ID NO:18 (protein)
chain: B6 chain
For B7, in assay [8], the “binding affinity in words, EpCAM” value is “low picomolar”. In [8] (kinetic fitting to association and dissociation, 20 nM to 0.5 nM), the “estimated Kd” value is less than 0.01 nM.

B8: PDL1Bind1_E39C-AF594 (designed binder)
chain: DEDTDRVFELLNEFNELREEGDPERAREVLEEAERLAKC(AF594)LSDPTLESFVQAIKRVY
As for B8, in [9], the binding result is “binds”.
